Values quoted from earlier work in paper PMC4775371.

Target: H1.0 (UniProt P07305)
Sequence of UniProt P07305 (P07305 2-194): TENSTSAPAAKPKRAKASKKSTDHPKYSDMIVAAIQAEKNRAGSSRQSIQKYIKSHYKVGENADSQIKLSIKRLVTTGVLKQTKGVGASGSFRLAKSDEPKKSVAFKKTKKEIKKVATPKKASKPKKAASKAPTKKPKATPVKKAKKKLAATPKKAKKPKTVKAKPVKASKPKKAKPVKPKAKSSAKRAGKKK

FACT (from UniProt Q9Y5B9)
Kd: 32 nM
